In the supplement of paper PMC9233669:
This sample holds only a part of the variants without activity.

What was measured:
[1] = tested on: biotinyl-Met-oxazolone; test: self-aminoacylation, catalytic enhancement (BMO) (fold over background); higher = more active; k-Seq, kA / k0A0; sequences stand for … in GGGAAUGGAUCCACAUCUACGAAUUC…UUCACUGCAGACUUGACGAAGCUG
Outline: (§1)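 Mutagenized RNA pools (0.43 μM; 21-nt variable region) were treated with 2–1250 μM of each biotinyl-aminoacyl-oxazolone. Conditions were 50 μL HEPES/NaCl/KCl/MgCl2/CaCl2 buffer, 5% acetonitrile, pH 6.9–7.0, room temperature, 90 minutes. Catalytic enhancement, the median kA relative to the uncatalyzed rate, was derived from streptavidin capture, qPCR and Illumina sequencing.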

[2] = tested on: biotinyl-Leu-oxazolone; test: self-aminoacylation, catalytic enhancement (BLO) (fold over background); higher = more active; k-Seq, kA / k0A0; sequences stand for … in GGGAAUGGAUCCACAUCUACGAAUUC…UUCACUGCAGACUUGACGAAGCUG
Outline: as §1

[3] = tested on: biotinyl-Val-oxazolone; test: self-aminoacylation, catalytic enhancement (BVO) (fold over background); higher = more active; k-Seq, kA / k0A0; sequences stand for … in GGGAAUGGAUCCACAUCUACGAAUUC…UUCACUGCAGACUUGACGAAGCUG
Outline: as §1

[4] = tested on: biotinyl-Trp-oxazolone; test: self-aminoacylation, catalytic enhancement (BWO) (fold over background); higher = more active; k-Seq, kA / k0A0; sequences stand for … in GGGAAUGGAUCCACAUCUACGAAUUC…UUCACUGCAGACUUGACGAAGCUG
Outline: as §1

[5] = tested on: biotinyl-Phe-oxazolone; test: self-aminoacylation, catalytic enhancement (BFO) (fold over background); higher = more active; k-Seq, kA / k0A0; sequences stand for … in GGGAAUGGAUCCACAUCUACGAAUUC…UUCACUGCAGACUUGACGAAGCUG
Outline: as §1

[6] = tested on: biotinyl-Ile-oxazolone; test: self-aminoacylation, catalytic enhancement (BIO) (fold over background); higher = more active; k-Seq, kA / k0A0; sequences stand for … in GGGAAUGGAUCCACAUCUACGAAUUC…UUCACUGCAGACUUGACGAAGCUG
Outline: as §1

Sequence | self-aminoacylation [1] | self-aminoacylation [2] | self-aminoacylation [3] | self-aminoacylation [4] | self-aminoacylation [5] | self-aminoacylation [6]
AUUACCCUGGUAAUCGAGUGG [Fam2.1 aminoacylation ribozyme variant] | 2.85 | 2.79 | 1.31 | 2.9 | 2.83 | 1.38
AUUACCCUGGUAUUCGAGUGA [Fam2.1 aminoacylation ribozyme variant] | 7.43 | 7.89 | 3.65 | 9.54 | 42.4 | 3.56
AUUACCCUGGUCAACGAGUAA [Fam2.1 aminoacylation ribozyme variant] | 1.19 | 1.53 | 1.44 | 0.972 | 1.01 | 1.29
AUUACCCUGGUCAACGAGUUA [Fam2.1 aminoacylation ribozyme variant] | 1.26 | 0.662 | 0.947 | 0.529 | 0.836 | 0.971
AUUACCCUGGUCACCAAGUGA [Fam2.1 aminoacylation ribozyme variant] | 6.45 | 6.54 | 3.32 | 7.7 | 34.3 | 3.47
AUUACCCUGGUCACCCAGUGA [Fam2.1 aminoacylation ribozyme variant] | 7.54 | 6.87 | 3.6 | 8.27 | 46.1 | 4.12
AUUACCCUGGUCACCGAGUUA [Fam2.1 aminoacylation ribozyme variant] | 1.52 | 1.26 | 1.75 | 2.34 | 1.81 | 1.64
AUUACCCUGGUCACCGCGUGA [Fam2.1 aminoacylation ribozyme variant] | 14.1 | 16.7 | 7.05 | 16.7 | 98.1 | 6.07
AUUACCCUGGUCAGCGAAUGA [Fam2.1 aminoacylation ribozyme variant] | 1.43 | 1.22 | 1.31 | 1.38 | 0.631 | 1.05
AUUACCCUGGUCAGCGGGUGA [Fam2.1 aminoacylation ribozyme variant] | 9.2 | 10.1 | 6.36 | 10.1 | 68.2 | 5.3
AUUACCCUGGUCAGCGUGUGA [Fam2.1 aminoacylation ribozyme variant] | 5.28 | 5.25 | 3.59 | 6.56 | 30.9 | 2.79
AUUACCCUGGUCAUAGACUGA [Fam2.1 aminoacylation ribozyme variant] | 0.586 | 0.739 | 0.991 | 0.537 | 0.776 | 0.874
AUUACCCUGGUCAUAGAGAGA [Fam2.1 aminoacylation ribozyme variant] | 0.983 | 0.798 | 0.717 | 0.77 | 0.605 | 0.947
AUUACCCUGGUCAUAGAGUUA [Fam2.1 aminoacylation ribozyme variant] | 1.39 | 0.921 | 1.1 | 0.786 | 0.667 | 1.25
AUUACCCUGGUCAUCAACUGA [Fam2.1 aminoacylation ribozyme variant] | 0.667 | 0.851 | 1.13 | 0.571 | 0.556 | 0.789
AUUACCCUGGUCAUCAAGGGA [Fam2.1 aminoacylation ribozyme variant] | 0.807 | 0.752 | 1.13 | 1.2 | 1.11 | 0.87
AUUACCCUGGUCAUCAAGUGC [Fam2.1 aminoacylation ribozyme variant] | 0.691 | 0.567 | 0.795 | 0.302 | 0.434 | 0.689
AUUACCCUGGUCAUCAAGUUA [Fam2.1 aminoacylation ribozyme variant] | 0.684 | 0.646 | 0.681 | 0.328 | 0.737 | 0.676
AUUACCCUGGUCAUCACGUGA [Fam2.1 aminoacylation ribozyme variant] | 8.87 | 7.86 | 4.39 | 9.65 | 52.4 | 3.08
AUUACCCUGGUCAUCAUGUGA [Fam2.1 aminoacylation ribozyme variant] | 6.44 | 6.36 | 3.17 | 6.97 | 26.2 | 2.67
AUUACCCUGGUCAUCCAGUGA [Fam2.1 aminoacylation ribozyme variant] | 5.67 | 5.76 | 3.42 | 6.71 | 28.1 | 3.41
AUUACCCUGGUCAUCCAGUGG [Fam2.1 aminoacylation ribozyme variant] | 1.84 | 1.68 | 1.3 | 1.28 | 1.42 | 1.22
AUUACCCUGGUCAUCCAGUUA [Fam2.1 aminoacylation ribozyme variant] | 0.914 | 0.855 | 1.08 | 0.433 | 0.726 | 0.875
AUUACCCUGGUCAUCGAAUGA [Fam2.1 aminoacylation ribozyme variant] | 1.07 | 1.08 | 1.06 | 0.908 | 0.974 | 1
AUUACCCUGGUCAUCGAAUGC [Fam2.1 aminoacylation ribozyme variant] | 0.827 | 0.723 | 0.68 | 0.726 | 0.567 | 1.04
AUUACCCUGGUCAUCGACUGC [Fam2.1 aminoacylation ribozyme variant] | 0.555 | 0.839 | 0.722 | 0.371 | 0.441 | 0.701
